Measurements: patent US12448422B2, “Transcription factor NCgl0581 mutant and use thereof in L-serine detection” (JITRI FUTURE FOOD TECHNOLOGY INSTITUTE CO., LTD., priority 2023, dated 2025)

Tested on: L-serine
Assay: L-serine biosensor dose response by exogenous addition of L-serine (eyfp fluorescence intensity/OD600)
Assay type: cell-based, E. coli JM109
Conditions: for detection limit of the biosensor (L-serine concentration at which the dose response curve shows an obvious upward trend): E. coli JM109, L-serine 0, 25, 50, 75 or 100 mM, 2 h at 37° C., PSerE-eyfp reporter
Experimental: Determination of fluorescence intensity and biomass of bacteria: E. coli in the medium was centrifuged at 4° C. and 4000 g for 5 min to collect the bacteria, washed with a precooled PBS buffer for 2-3 times, resuspended and diluted in a PBS buffer (OD600=0.2-0.8). 200 μL of the diluted bacterial liquid was pipetted and added into a 96-well plate, and the fluorescence intensity and bacterial concentration were determined with a multifunctional microplate reader. During the determination of the fluorescence intensity, the parameters of the microplate reader were set to a yellow fluorescent protein excitation wavelength of 488 nm and an emission wavelength of 590/9 nm; and during the determination of the bacteria concentration, the parameters of the microplate reader were set to λ=600.
One part of the biosensor was used for the expression of the transcription regulator NCgl0581, and the other part was connected with the promoter PSerE regulated by NCgl0581, and then connected with eyfp, which was used to characterize the binding of the biosensor to L-serine so as to regulate the transcription level of eyfp. The nucleotide sequence of the promoter PSerE is shown in SEQ ID NO.5, and the nucleotide sequence of the reporter gene eyfp is shown in SEQ ID No.6.
On the basis of site-directed mutation, E. coli JM109 single colonies containing wild-type NCgl0581 and mutant E136P were selected and inoculated into a 10 mL LB (100 μg/mL Kan) liquid medium, and cultured overnight at 37° C. and 220 rpm. A 950 μL of fresh LB medium was added to each well in a sterilized 24-well plate, and then L-serine with different concentrations was added, with the final concentration controlled to be 0, 25, 50, 75 or 100 mM respectively. Finally, 50 μL of the overnight culture bacteria liquid was added to each well, and the well plate was cultured in a shaker for 2 h at 37° C. and 220 rpm.
E. coli JM109 in the medium was centrifuged for 5 min to collect the bacteria, washed with a PBS buffer for 2-3 times, resuspended and diluted in a PBS buffer (OD600=0.2-0.8). 200 μL of the diluted bacterial liquid was pipetted and added into a 96-well plate, and the bacterial concentration OD600 and fluorescence intensity were determined with a multifunctional microplate reader, with the calculated fluorescence intensity/OD600 as the fluorescence intensity value per unit of bacterial cell.
With the fluorescence intensity/OD600 as the ordinate and the L-serine concentration as the abscissa, the dose response curve of the biosensor to L-serine was drawn by OriginPro 8.5. […] According to the response curve, the detection range of wild-type NCgl0581 and mutant E136P could be obtained respectively.

Row | Molecule | detection limit of the biosensor (L-serine concentration at which the dose response curve shows an obvious upward trend) [mM] | change of detection limit of the biosensor versus wild type (biosensor in E. coli, L-serine concentration gradients) | response concentration to L-serine (biosensor in E. coli, exogenous addition of L-serine) [mM]
1 | NCgl0581^E136P: transcription factor NCgl0581 mutant, 136th glutamic acid of SEQ ID NO.1 mutated into proline (SEQ ID NO.3) (protein) VLNLNRLHILQEFHRLGTITAVAESMNYSRSAISQQMALLEKEIGVKLFEKSGRNLYFTEQGEVLASETHAIMAAVDHARAAVLDSLSEVSGTLKVTSFQSLLFTLAPKAIARLTEKYPHLQVEISQLEVTAALEPLRARRVDVALGEEYPVEVPLVEASIHREVLFEDPMLLVTPASGPYSGLTLPELRDIPIAIDPPDLPAGEWVHRLCRRAGFEPRVTFETSDPMLQAHLVRSGLAVTFSPTLLTPMLESVHIQPLPGNPTRTLYTAVREGRQGHPAIKAFRRALAHVAKESYLEARLVE | 25 | reduced by half | 25
2 | wild-type NCgl0581: wild-type LysR-family transcription regulator of Corynebacterium glutamicum (SEQ ID NO.1); L-serine biosensor pDSer is based on it (protein) VLNLNRLHILQEFHRLGTITAVAESMNYSRSAISQQMALLEKEIGVKLFEKSGRNLYFTEQGEVLASETHAIMAAVDHARAAVLDSLSEVSGTLKVTSFQSLLFTLAPKAIARLTEKYPHLQVEISQLEVTAALEELRARRVDVALGEEYPVEVPLVEASIHREVLFEDPMLLVTPASGPYSGLTLPELRDIPIAIDPPDLPAGEWVHRLCRRAGFEPRVTFETSDPMLQAHLVRSGLAVTFSPTLLTPMLESVHIQPLPGNPTRTLYTAVREGRQGHPAIKAFRRALAHVAKESYLEARLVE | 50 | – | –
